These results are taken from patent US20220220224A1 (Hoffmann-La Roche, published 2022).

Assay [1] addresses T1, recombinant biotinylated monomeric Fc fusion of human Folate Receptor 3 (hu FolR3 ECD-AcTev-Fcknob-Avi tag … (human, UniProt P0DOX5 223-449 = IgG part, biotin on the C-terminal Avi tag)).
T1 construct: also called FolR3-Fc
The assay can be described thus: SPR Biacore, single injection on immobilized antigen-Fc. As to the method: (§1) Binding of FolR1 binders as IgG or in the T-cell bispecific format to different recombinant folate receptors (human FolR1, 2 and 3, murine FolR1 and cynomolgus FolR1; all as Fc fusions) was assessed by surface plasmon resonance (SPR). All SPR experiments were performed on a Biacore T200 at 25° C. with HBS-EP as running buffer (0.01 M HEPES pH 7.4, 0.15 M NaCl, 3 mM EDTA, 0.005% Surfactant P20, Biacore, Freiburg/Germany).
(§2) First the anti-FolR1 IgGs were analyzed by single injections (Table 1) to characterize their crossreactivity (to human, murine and cyno FolR1) and specificity (to human FolR1, human FolR2, human FolR3). Recombinant biotinylated monomeric Fc fusions of human, cynomolgus and murine Folate Receptor 1 (FolR1-Fc) or human Folate Receptor 2 and 3 (FolR2-Fc, FolR3-Fc) were directly coupled on a SA chip using the standard coupling instruction (Biacore, Freiburg/Germany). The immobilization level was about 300-400 RU. The IgGs were injected for 60 seconds at a concentration of 500 nM.

In assay [2] the target is T2, recombinant biotinylated monomeric Fc fusion of human Folate Receptor 2 (hu FolR2 ECD-AcTev-Fcknob-Avi tag … (human, UniProt P0DOX5 223-449 = IgG part, biotin on the C-terminal Avi tag)).
T2 construct: also called FolR2-Fc
Described as above. As for the experimental part: as §1, §2

Assay [3] has as its target T3, recombinant biotinylated monomeric Fc fusion of cynomolgus Folate Receptor 1 (cy FolR1 ECD-AcTev-Fcknob-Avi … (cynomolgus, UniProt P0DOX5 223-449 = IgG part, biotin on the C-terminal Avi tag)).
T3 construct: also called cyFolR1-Fc; cyno FolR1
In words: SPR Biacore, avidity (bivalent, apparent KD), antigen-Fc on SA chip. As for the experimental part: (§3) The avidity of the interaction between the anti-FolR1 IgGs or T cell bispecifics and the recombinant folate receptors was determined as described below (Table 41).
(§4) Recombinant biotinylated monomeric Fc fusions of human, cynomolgus and murine Folate Receptor 1 (FolR1-Fc) were directly coupled on a SA chip using the standard coupling instruction (Biacore, Freiburg/Germany). The immobilization level was about 300. […] The dissociation was monitored for 240 or 600 seconds. Bulk refractive index differences were corrected for by subtracting the response obtained on reference flow cell immobilized with recombinant biotinylated murine IL2 receptor Fc fusion. The binding curves resulting from the bivalent binding of the IgG or T cell bispecifics were approximated to a 1:1 Langmuir binding (even though it is a 1:2 binding) and fitted with that model to get an apparent KD representing the avidity of the bivalent binding. The apparent avidity constants for the interactions were derived from the rate constants of the fitting using the Bia Evaluation software (GE Healthcare). For low affinity kinetics with association and dissociation phases too fast to be fitted by the 1:1 Langmuir binding model, the steady state analysis model was applied using the Bia Evaluation software (GE Healthcare). The steady state analysis gives the KD of the binding reaction at equilibrium.
(In general: SPR reads the build-up and loss of mass on a sensor chip optically.)

In assay [4] the target is T4, recombinant biotinylated monomeric Fc fusion of human Folate Receptor 1 (huFolR1 ECD-AcTev-Fcknob-Avi tag … (human, UniProt P0DOX5 223-449 = IgG part, biotin on the C-terminal Avi tag)).
T4 construct: also called huFolR1-Fc; human FolR1-Fc
The description is as above. As for the experimental part:
as §3, §4

Assay [5] has as its target T4, recombinant biotinylated monomeric Fc …. In words: SPR Biacore, affinity (monovalent), antibody captured via anti-Fab. As to the method: The affinity of the interaction between the anti-FolR1 IgGs or the T cell bispecifics and the recombinant folate receptors was determined as described below (Table 42).
For affinity measurement, direct coupling of around 10000 resonance units (RU) of the anti-human Fab specific antibody (Fab capture kit, GE Healthcare) was performed on a CM5 chip at pH 5.0 using the standard amine coupling kit (GE Healthcare). Anti-FolR1 IgGs or T cell bispecifics were captured at 200 nM with a flow rate of 10 ul/min for 40 sec, the reference flow cell was left without capture. Dilution series (12.35 to 3000 nM) of human Folate Receptor 1 Fc fusion were passed on all flow cells at 30 μl/min for 240 sec to record the association phase. The dissociation phase was monitored for 300 s and triggered by switching from the sample solution to HBS-EP. The chip surface was regenerated after every cycle using a double injection of 60 sec 10 mM Glycine-HCl pH 1.5. Bulk refractive index differences were corrected for by subtracting the response obtained on the reference flow cell 1. The affinity constants for the interactions were derived from the rate constants by fitting to a 1:1 Langmuir binding using the Bia Evaluation software (GE Healthcare).

B1: 15H7 IgG (antibody, V domains shown)
VH: QVQLVQSGAEVKKPGASVKVSCKASGYTFTSYYMHWVRQAPGQGLEWMGIINPSGGSTSYAQKFQGRVTMTRDTSTSTVYMELSSLRSEDTAVYYCARNYYLFSTSFDYWGQGTLVTVSS
VL: QAVVTQEPSLTVSPGGTVTLTCGSSTGAVTTSNYANWVQEKPGQAFRGLIGGTNKRAPGTPARFSGSLLGGKAALTLSGAQPEDEAEYYCALWYSNLWVFGGGTKLTVL
notes: human IgG1
For the molecule B1, the binding result in assay [1] and in assay [2] was “no binding (tested: 500 nM)” each time.

B2: 16D5 IgG variant S35H/wt (HC/LC) (antibody, V domains shown)
VH: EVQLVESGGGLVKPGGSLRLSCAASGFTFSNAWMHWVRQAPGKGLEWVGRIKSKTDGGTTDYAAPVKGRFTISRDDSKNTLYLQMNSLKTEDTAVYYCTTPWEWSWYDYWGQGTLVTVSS
VL: QAVVTQEPSLTVSPGGTVTLTCGSSTGAVTTSNYANWVQEKPGQAFRGLIGGTNKRAPGTPARFSGSLLGGKAALTLSGAQPEDEAEYYCALWYSNLWVFGGGTKLTVL
notes: IgG
The koff is a measure of how fast the partners let go of each other. Broadly, the kon is the second-order rate constant of association. Turning to B2, in assay [3], the Kd stood at 55 nM, the off-rate constant (koff) stood at 0.0124 s⁻¹ and the kon is 223000 M⁻¹ s⁻¹. Further, in assay [4], the Kd was 40 nM, the off-rate constant (koff) stood at 0.00568 s⁻¹ and the kon was 132000 M⁻¹ s⁻¹. Moreover, in assay [5], the Kd turned out to be 1200 nM, the dissociation rate constant (koff) came to 0.0113 s⁻¹ and the kon was 8960 M⁻¹ s⁻¹.

B3: 16D5 IgG variant S35H/S93A (HC/LC) (antibody, V domains shown)
VH: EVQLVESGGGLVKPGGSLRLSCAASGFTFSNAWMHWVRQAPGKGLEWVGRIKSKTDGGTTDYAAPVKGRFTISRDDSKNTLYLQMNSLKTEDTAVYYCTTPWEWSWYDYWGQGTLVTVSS
VL: QTVVTQEPSLTVSPGGTVTLTCGSSTGAVTTSNYANWVQQKPGQAPRGLIGGTNKRAPGTPARFSGSLLGGKAALTLSGVQPEDEAEYYCALWYANLWVFGGGTKLTVL
notes: IgG
Turning to B3, in assay [3], the Kd turned out to be 110 nM, the koff is 0.0677 s⁻¹ and the kon was found to be 612000 M⁻¹ s⁻¹. Besides, in assay [4], the Kd was 90 nM, the dissociation rate constant (koff) came to 0.022 s⁻¹ and the kon is 243000 M⁻¹ s⁻¹. In assay [5], the Kd was 1300 nM, the koff is 0.0112 s⁻¹ and the on-rate constant (kon) came out at 8430 M⁻¹ s⁻¹.

B4: 16D5 IgG variant R50S/S93A (HC/LC) (antibody, V domains shown)
VH: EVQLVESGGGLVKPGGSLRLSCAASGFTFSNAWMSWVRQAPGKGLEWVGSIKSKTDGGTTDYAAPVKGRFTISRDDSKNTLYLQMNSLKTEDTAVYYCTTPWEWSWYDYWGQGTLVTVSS
VL: QTVVTQEPSLTVSPGGTVTLTCGSSTGAVTTSNYANWVQQKPGQAPRGLIGGTNKRAPGTPARFSGSLLGGKAALTLSGVQPEDEAEYYCALWYANLWVFGGGTKLTVL
notes: IgG
For B4, the Kd in assay [3] was determined as 20 nM; in assay [4] it was 30 nM; in assay [5], 780 nM. The results for the dissociation rate constant (koff) in assay [3], in assay [4] and in assay [5] were 0.0078 s⁻¹, 0.00323 s⁻¹ and 0.0123 s⁻¹, respectively. For the same molecule, the kon in assay [3] worked out at 439000 M⁻¹ s⁻¹; in assay [4], 125000 M⁻¹ s⁻¹; in assay [5] it was 15700 M⁻¹ s⁻¹.

B5: 16D5 IgG variant G49S/S93A (HC/LC) (antibody, V domains shown)
VH: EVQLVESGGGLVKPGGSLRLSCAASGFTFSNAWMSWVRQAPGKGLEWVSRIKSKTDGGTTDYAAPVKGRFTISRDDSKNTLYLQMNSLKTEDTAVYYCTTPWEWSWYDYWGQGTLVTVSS
VL: QTVVTQEPSLTVSPGGTVTLTCGSSTGAVTTSNYANWVQQKPGQAPRGLIGGTNKRAPGTPARFSGSLLGGKAALTLSGVQPEDEAEYYCALWYANLWVFGGGTKLTVL
notes: IgG
Regarding B5, the Kd amounted to 20 nM in assay [3], 20 nM in assay [4] and 760 nM in assay [5]. Moreover, the koff in assay [3] amounted to 0.00622 s⁻¹; in assay [4] it was 0.00306 s⁻¹; in assay [5], 0.00799 s⁻¹. For the same molecule, the association rate constant (kon) in assay [3] is 358000 M⁻¹ s⁻¹; in assay [4] it was 152000 M⁻¹ s⁻¹; in assay [5], 10500 M⁻¹ s⁻¹.

B6: 16D5 IgG variant S35H/K53A (HC/LC) (antibody, V domains shown)
VH: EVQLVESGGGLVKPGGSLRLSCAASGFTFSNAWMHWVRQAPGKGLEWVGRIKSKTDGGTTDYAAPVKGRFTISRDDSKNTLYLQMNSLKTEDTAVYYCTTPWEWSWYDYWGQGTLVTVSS
VL: QTVVTQEPSLTVSPGGTVTLTCGSSTGAVTTSNYANWVQQKPGQAPRGLIGGTNARAPGTPARFSGSLLGGKAALTLSGVQPEDEAEYYCALWYSNLWVFGGGTKLTVL
notes: IgG
Turning to B6, in assay [3], the Kd was found to be 1100 nM, the koff is 0.0404 s⁻¹ and the kon was 34700 M⁻¹ s⁻¹. For the same molecule, in assay [4], the Kd is 1400 nM, the off-rate (koff) came to 0.0291 s⁻¹ and the on-rate constant (kon) amounted to 21000 M⁻¹ s⁻¹.

B7: 16D5 IgG variant W96Y/S93A (HC/LC) (antibody, V domains shown)
VH: not shown
VL: QTVVTQEPSLTVSPGGTVTLTCGSSTGAVTTSNYANWVQQKPGQAPRGLIGGTNKRAPGTPARFSGSLLGGKAALTLSGVQPEDEAEYYCALWYANLWVFGGGTKLTVL
notes: IgG
For the molecule B7, in assay [3], the Kd was 30 nM, the off-rate constant (koff) is 0.0174 s⁻¹ and the kon was 625000 M⁻¹ s⁻¹. Moreover, in assay [4], the Kd came to 30 nM, the off-rate (koff) came out at 0.0189 s⁻¹ and the on-rate constant (kon) turned out to be 655000 M⁻¹ s⁻¹. In assay [5], the Kd turned out to be 420 nM, the koff turned out to be 0.0172 s⁻¹ and the on-rate (kon) stood at 40500 M⁻¹ s⁻¹.

B8: 16D5 IgG variant R50S/K53A (HC/LC) (antibody, V domains shown)
VH: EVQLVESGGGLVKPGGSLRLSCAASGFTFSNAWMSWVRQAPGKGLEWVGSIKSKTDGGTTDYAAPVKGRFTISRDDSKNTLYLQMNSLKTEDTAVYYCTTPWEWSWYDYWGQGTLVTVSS
VL: QTVVTQEPSLTVSPGGTVTLTCGSSTGAVTTSNYANWVQQKPGQAPRGLIGGTNARAPGTPARFSGSLLGGKAALTLSGVQPEDEAEYYCALWYSNLWVFGGGTKLTVL
notes: IgG
Regarding B8, the Kd amounted to 80 nM in assay [3], 60 nM in assay [4] and 1800 nM in assay [5]. Besides, the dissociation rate constant (koff) in assay [3] is 0.0455 s⁻¹; in assay [4], 0.0197 s⁻¹; in assay [5], 0.0245 s⁻¹. For the same molecule, the kon stood at 550000 M⁻¹ s⁻¹ in assay [3], 328000 M⁻¹ s⁻¹ in assay [4] and 13500 M⁻¹ s⁻¹ in assay [5].

B9: 16A3 IgG (antibody, V domains shown)
VH: QVQLVQSGAEVKKPGASVKVSCKASGYTFTSYYMHWVRQAPGQGLEWMGIINPSGGSTSYAQKFQGRVTMTRDTSTSTVYMELSSLRSEDTAVYYCARNYYAGVTPFDYWGQGTLVTVSS
VL: QAVVTQEPSLTVSPGGTVTLTCGSSTGAVTTSNYANWVQEKPGQAFRGLIGGTNKRAPGTPARFSGSLLGGKAALTLSGAQPEDEAEYYCALWYSNLWVFGGGTKLTVL
notes: human IgG1
With B9, the binding result in assay [1] and in assay [2] was “no binding (tested: 500 nM)” in each case.

B10: 16D5 IgG variant W96Y/wt (HC/LC) (antibody, V domains shown)
VH: not shown
VL: QAVVTQEPSLTVSPGGTVTLTCGSSTGAVTTSNYANWVQEKPGQAFRGLIGGTNKRAPGTPARFSGSLLGGKAALTLSGAQPEDEAEYYCALWYSNLWVFGGGTKLTVL
notes: IgG
B10: in assay [3], the Kd came to 10 nM, the dissociation rate constant (koff) was 0.00211 s⁻¹ and the kon turned out to be 173000 M⁻¹ s⁻¹. Moreover, in assay [4], the Kd was found to be 20 nM, the off-rate (koff) worked out at 0.00213 s⁻¹ and the on-rate (kon) came to 129000 M⁻¹ s⁻¹. Moreover, in assay [5], the Kd worked out at 550 nM, the koff was found to be 0.00544 s⁻¹ and the kon amounted to 9950 M⁻¹ s⁻¹.

B11: 16D5 IgG variant G49S/K53A (HC/LC) (antibody, V domains shown)
VH: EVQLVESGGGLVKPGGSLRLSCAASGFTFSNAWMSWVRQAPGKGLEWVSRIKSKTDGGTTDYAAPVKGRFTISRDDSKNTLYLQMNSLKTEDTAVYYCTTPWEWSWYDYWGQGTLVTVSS
VL: QTVVTQEPSLTVSPGGTVTLTCGSSTGAVTTSNYANWVQQKPGQAPRGLIGGTNARAPGTPARFSGSLLGGKAALTLSGVQPEDEAEYYCALWYSNLWVFGGGTKLTVL
notes: IgG
With B11, in assay [3], the Kd was determined as 80 nM, the dissociation rate constant (koff) was 0.0328 s⁻¹ and the kon was determined as 393000 M⁻¹ s⁻¹. Further, in assay [4], the Kd came to 60 nM, the off-rate (koff) amounted to 0.0115 s⁻¹ and the kon came out at 190000 M⁻¹ s⁻¹. In addition, in assay [5], the Kd is 1900 nM, the koff was 0.0174 s⁻¹ and the association rate constant (kon) came out at 9190 M⁻¹ s⁻¹.
